In this experiment the target is S. pneumoniae RecA lacking the first 28 residues (Δ28), purified (S. pneumoniae) (UniProt P0A451). The experiment in a line: SEC-MALS; purified Δ28RecA; details in Supplementary Results and Supplementary Figure S5. (SEC sorts molecules by how far they enter the pores of the column.)

In general, stoichiometry N refers to the number of molecules, sites or subunits per partner or assembly. For “S. pneumoniae RecA lacking the first 28 residues (Δ28), purified (from UniProt P0A451 29-388) (domain or fragment)”, the stoichiometry N turned out to be 2.
